Test results as given in publication PMC3137072.
Each block holds one substance with its values, some of them ahead of it.

Key:
[1] = target: microtubules (polymerized tubulin) (UniProt Q6B856)
[2] = target: filamentous actin (F-actin), non-muscle actin (UniProt P60709)

Sequence of microtubules (polymerized tubulin) (Q6B856 whole entry, looked up): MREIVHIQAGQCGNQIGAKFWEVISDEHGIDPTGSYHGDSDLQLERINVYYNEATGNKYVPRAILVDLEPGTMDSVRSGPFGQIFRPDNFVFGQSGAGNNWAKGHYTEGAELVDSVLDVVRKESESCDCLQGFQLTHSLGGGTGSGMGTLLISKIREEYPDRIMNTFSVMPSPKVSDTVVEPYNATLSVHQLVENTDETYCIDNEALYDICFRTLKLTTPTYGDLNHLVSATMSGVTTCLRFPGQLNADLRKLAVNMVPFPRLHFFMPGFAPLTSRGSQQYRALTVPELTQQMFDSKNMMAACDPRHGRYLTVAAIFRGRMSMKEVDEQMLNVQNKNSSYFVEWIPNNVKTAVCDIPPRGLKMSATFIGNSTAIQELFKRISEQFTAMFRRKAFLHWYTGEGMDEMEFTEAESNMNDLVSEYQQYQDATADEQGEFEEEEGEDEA
Sequence of G2L3-CH (calponin homology domain of GAS2-like 3) (Q86XJ1 48-168): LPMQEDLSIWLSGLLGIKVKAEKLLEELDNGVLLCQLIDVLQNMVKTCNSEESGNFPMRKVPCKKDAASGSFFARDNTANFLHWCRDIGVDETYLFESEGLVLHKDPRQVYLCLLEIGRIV
Sequence of G2L3-ΔGAR (GAS2-like 3 lacking the GAR domain), GFP-tagged (Q86XJ1 whole entry, stated change not applied, the tested form may be a part): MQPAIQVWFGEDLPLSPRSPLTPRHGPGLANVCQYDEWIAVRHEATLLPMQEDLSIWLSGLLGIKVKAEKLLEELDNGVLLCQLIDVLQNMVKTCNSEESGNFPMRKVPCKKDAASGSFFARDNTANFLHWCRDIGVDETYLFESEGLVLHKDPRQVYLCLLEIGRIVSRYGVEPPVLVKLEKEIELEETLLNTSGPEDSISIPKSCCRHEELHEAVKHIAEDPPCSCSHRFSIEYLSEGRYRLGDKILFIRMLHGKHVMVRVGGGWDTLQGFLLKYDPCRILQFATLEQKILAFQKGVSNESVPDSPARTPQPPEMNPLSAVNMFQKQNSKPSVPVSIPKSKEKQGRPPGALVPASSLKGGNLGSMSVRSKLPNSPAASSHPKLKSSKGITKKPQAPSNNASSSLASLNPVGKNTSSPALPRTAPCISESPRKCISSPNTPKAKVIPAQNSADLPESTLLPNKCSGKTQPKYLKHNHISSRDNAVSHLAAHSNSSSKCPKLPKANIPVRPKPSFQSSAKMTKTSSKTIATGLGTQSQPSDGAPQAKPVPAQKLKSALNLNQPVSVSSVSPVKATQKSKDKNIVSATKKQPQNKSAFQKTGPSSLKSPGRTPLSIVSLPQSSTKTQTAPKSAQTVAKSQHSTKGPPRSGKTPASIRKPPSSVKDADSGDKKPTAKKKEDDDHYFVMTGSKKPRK

FRAP, t½ of recovery of GFP-tagged G2L3-C-term on MTs in NIH3T3 cells [1]: 3.9 s
Substance: G2L3-C-term (C terminus of GAS2-like 3) (domain or fragment)

FRAP, t½ of recovery of GFP-tagged G2L3-CH on actin filaments in NIH3T3 cells [2]: 28.5 s
Substance: G2L3-CH (calponin homology domain of GAS2-like 3) (from UniProt Q86XJ1 48-168) (domain or fragment)

FRAP, t½ of recovery of GFP-tagged G2L3-ΔCH on MTs in NIH3T3 cells [1]: 15.3 s
Substance: G2L3-ΔCH (GAS2-like 3 lacking the CH domain), GFP-tagged (domain or fragment)

FRAP, t½ of recovery of GFP-tagged G2L3-ΔGAR on MTs in NIH3T3 cells [1]: 6 s
Substance: G2L3-ΔGAR (GAS2-like 3 lacking the GAR domain), GFP-tagged (from UniProt Q86XJ1 1-694) (natural protein)
